The target in the experiment is Flk1 (UniProt P35918).

For 1 substance, 3.9 kb Etv2 luciferase reporter (standardized to Renilla) in 293T cells cotransfected with the Flk1 expression vector, VEGF 50 ng/ml for 2, 6 or 18 hours results are on record in publication PMC3501484.

UniProt P35918, sequence (P35918 20-1345): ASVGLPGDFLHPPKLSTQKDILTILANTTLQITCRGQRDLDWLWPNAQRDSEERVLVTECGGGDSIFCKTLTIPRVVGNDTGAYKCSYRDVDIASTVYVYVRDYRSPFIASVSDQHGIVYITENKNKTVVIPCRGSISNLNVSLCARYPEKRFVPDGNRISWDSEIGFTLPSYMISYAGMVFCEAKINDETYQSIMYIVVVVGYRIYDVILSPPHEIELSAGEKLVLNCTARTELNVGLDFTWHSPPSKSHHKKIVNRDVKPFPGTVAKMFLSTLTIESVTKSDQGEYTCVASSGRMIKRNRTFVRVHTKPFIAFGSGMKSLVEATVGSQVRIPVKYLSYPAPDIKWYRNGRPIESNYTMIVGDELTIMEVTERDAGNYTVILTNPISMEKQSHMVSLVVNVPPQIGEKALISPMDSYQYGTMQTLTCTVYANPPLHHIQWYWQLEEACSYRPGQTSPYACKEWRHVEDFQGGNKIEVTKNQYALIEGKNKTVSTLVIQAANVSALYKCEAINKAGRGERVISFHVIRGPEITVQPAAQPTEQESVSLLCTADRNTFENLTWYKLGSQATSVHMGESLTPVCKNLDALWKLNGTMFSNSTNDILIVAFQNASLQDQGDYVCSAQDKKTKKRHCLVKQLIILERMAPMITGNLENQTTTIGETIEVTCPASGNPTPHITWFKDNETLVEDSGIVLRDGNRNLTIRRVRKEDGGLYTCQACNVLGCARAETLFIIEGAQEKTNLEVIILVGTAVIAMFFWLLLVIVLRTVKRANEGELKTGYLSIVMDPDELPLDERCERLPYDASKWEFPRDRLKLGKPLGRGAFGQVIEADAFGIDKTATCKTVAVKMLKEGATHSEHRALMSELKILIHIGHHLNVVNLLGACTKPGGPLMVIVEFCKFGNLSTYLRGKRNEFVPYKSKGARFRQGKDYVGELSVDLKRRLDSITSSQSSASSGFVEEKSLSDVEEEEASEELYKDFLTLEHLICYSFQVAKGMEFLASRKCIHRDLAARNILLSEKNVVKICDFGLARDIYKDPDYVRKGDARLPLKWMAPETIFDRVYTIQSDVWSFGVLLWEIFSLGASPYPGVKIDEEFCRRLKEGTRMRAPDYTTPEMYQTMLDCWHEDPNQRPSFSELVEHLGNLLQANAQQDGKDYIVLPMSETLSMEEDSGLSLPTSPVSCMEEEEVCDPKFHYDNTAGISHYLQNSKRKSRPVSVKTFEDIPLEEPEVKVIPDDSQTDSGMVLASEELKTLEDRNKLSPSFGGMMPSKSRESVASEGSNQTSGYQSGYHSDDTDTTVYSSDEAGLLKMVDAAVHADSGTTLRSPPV

VEGF 165 (ligand) registered a 3.9 kb Etv2 luciferase reporter (standardized to Renilla) in 293T cells cotransfected with the Flk1 expression vector, VEGF 50 ng/ml for 2, 6 or 18 hours of 15 fold.
